Reference: patent US20210388110A1 (published 2021)

Target: T1, soluble human GPC3 (human, UniProt P51654 25-563, limits assumed)
T1 construct: also called glypican 3
Experiment: SPR (Biacore), single-arm antibody, soluble human GPC3

T1 sequence (P51654 other isoform, or with tags, fused parts or gaps limits assumed, form in doubt): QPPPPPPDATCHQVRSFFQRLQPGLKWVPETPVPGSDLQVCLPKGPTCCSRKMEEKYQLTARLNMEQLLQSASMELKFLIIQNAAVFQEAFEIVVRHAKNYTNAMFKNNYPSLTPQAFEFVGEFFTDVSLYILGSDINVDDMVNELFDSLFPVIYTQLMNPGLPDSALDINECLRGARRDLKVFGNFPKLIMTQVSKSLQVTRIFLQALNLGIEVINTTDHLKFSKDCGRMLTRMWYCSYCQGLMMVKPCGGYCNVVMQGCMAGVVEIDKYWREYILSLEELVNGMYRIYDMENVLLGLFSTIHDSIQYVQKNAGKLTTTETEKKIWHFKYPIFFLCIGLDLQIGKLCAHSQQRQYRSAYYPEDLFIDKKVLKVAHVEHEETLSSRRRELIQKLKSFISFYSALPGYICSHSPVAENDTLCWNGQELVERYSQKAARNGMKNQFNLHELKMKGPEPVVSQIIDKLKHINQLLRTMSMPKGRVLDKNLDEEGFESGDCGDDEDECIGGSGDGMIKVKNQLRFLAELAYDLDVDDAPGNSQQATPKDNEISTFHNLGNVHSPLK

Row | Kd [nM] | Binder
1 | 5.3 | GCH054-G1dh/none-Hi-Kn010G3/L0000-k0 (antibody, human IgG1, kappa, single-arm antibody) heavy: not shown EPKSSDKTHTCPPCPAPELLGGPSVFLFPPKPKDTLMISRTPEVTCVVVDVSHEDPEVKFNWYVDGVEVHNAKTKPREEQYNSTYRVVSVLTVLHQDWLNGKEYKCKVSNKALPAPIEKTISKAKGQPREPQVCTLPPSRDELTKNQVSLWCLVKGFYPSDIAVEWESNGQPENNYKTTPPVLDSDGSFFLYSKLTVDKSRWQQGNVFSCSVMHEALHNRYTQKSLSLSP light: DIVMTQSPLSLPVTPGEPASISCRSSQSLVHSNRNTYLHWYQQKPGQAPRLLIYKVSNRFSGVPDRFSGSGSGTDFTLKISRVEAEDVGVYYCGQGTQVPYTFGQGTKLEIKRTVAAPSVFIFPPSDEQLKSGTASVVCLLNNFYPREAKVQWKVDNALQSGNSQESVTEQDSKDSTYSLSSTLTLSKADYEKHKVYACEVTHQGLSSPVTKSFNRGEC
2 | 5.6 | GCH055-G1dh/none-Hi-Kn010G3/L0000-k0 (antibody, human IgG1, kappa, single-arm antibody) heavy: not shown EPKSSDKTHTCPPCPAPELLGGPSVFLFPPKPKDTLMISRTPEVTCVVVDVSHEDPEVKFNWYVDGVEVHNAKTKPREEQYNSTYRVVSVLTVLHQDWLNGKEYKCKVSNKALPAPIEKTISKAKGQPREPQVCTLPPSRDELTKNQVSLWCLVKGFYPSDIAVEWESNGQPENNYKTTPPVLDSDGSFFLYSKLTVDKSRWQQGNVFSCSVMHEALHNRYTQKSLSLSP light: DIVMTQSPLSLPVTPGEPASISCRSSQSLVHSNRNTYLHWYQQKPGQAPRLLIYKVSNRFSGVPDRFSGSGSGTDFTLKISRVEAEDVGVYYCGQGTQVPYTFGQGTKLEIKRTVAAPSVFIFPPSDEQLKSGTASVVCLLNNFYPREAKVQWKVDNALQSGNSQESVTEQDSKDSTYSLSSTLTLSKADYEKHKVYACEVTHQGLSSPVTKSFNRGEC
3 | 5.61 | GCH057-G1dh/none-Hi-Kn010G3/L0000-k0 (antibody, human IgG1, kappa, single-arm antibody) heavy: not shown EPKSSDKTHTCPPCPAPELLGGPSVFLFPPKPKDTLMISRTPEVTCVVVDVSHEDPEVKFNWYVDGVEVHNAKTKPREEQYNSTYRVVSVLTVLHQDWLNGKEYKCKVSNKALPAPIEKTISKAKGQPREPQVCTLPPSRDELTKNQVSLWCLVKGFYPSDIAVEWESNGQPENNYKTTPPVLDSDGSFFLYSKLTVDKSRWQQGNVFSCSVMHEALHNRYTQKSLSLSP light: DIVMTQSPLSLPVTPGEPASISCRSSQSLVHSNRNTYLHWYQQKPGQAPRLLIYKVSNRFSGVPDRFSGSGSGTDFTLKISRVEAEDVGVYYCGQGTQVPYTFGQGTKLEIKRTVAAPSVFIFPPSDEQLKSGTASVVCLLNNFYPREAKVQWKVDNALQSGNSQESVTEQDSKDSTYSLSSTLTLSKADYEKHKVYACEVTHQGLSSPVTKSFNRGEC
4 | 4.31 | GCH056-G1dh/none-Hi-Kn010G3/L0011-k0 (antibody, human IgG1, kappa, single-arm antibody) heavy: not shown EPKSSDKTHTCPPCPAPELLGGPSVFLFPPKPKDTLMISRTPEVTCVVVDVSHEDPEVKFNWYVDGVEVHNAKTKPREEQYNSTYRVVSVLTVLHQDWLNGKEYKCKVSNKALPAPIEKTISKAKGQPREPQVCTLPPSRDELTKNQVSLWCLVKGFYPSDIAVEWESNGQPENNYKTTPPVLDSDGSFFLYSKLTVDKSRWQQGNVFSCSVMHEALHNRYTQKSLSLSP light: DIVMTQSPLSLPVTPGEPASISCRSSQPLVHSNRNTYLHWYQQKPGQAPRLLIYKVSNRFSGVPDRFSGSGSGTDFTLKISRVEAEDVGVYYCGQGTQVPYTFGQGTKLEIKRTVAAPSVFIFPPSDEQLKSGTASVVCLLNNFYPREAKVQWKVDNALQSGNSQESVTEQDSKDSTYSLSSTLTLSKADYEKHKVYACEVTHQGLSSPVTKSFNRGEC
5 | 5.03 | GCH056-G1dh/none-Hi-Kn010G3/L0000-k0 (antibody, human IgG1, kappa, single-arm antibody) heavy: not shown EPKSSDKTHTCPPCPAPELLGGPSVFLFPPKPKDTLMISRTPEVTCVVVDVSHEDPEVKFNWYVDGVEVHNAKTKPREEQYNSTYRVVSVLTVLHQDWLNGKEYKCKVSNKALPAPIEKTISKAKGQPREPQVCTLPPSRDELTKNQVSLWCLVKGFYPSDIAVEWESNGQPENNYKTTPPVLDSDGSFFLYSKLTVDKSRWQQGNVFSCSVMHEALHNRYTQKSLSLSP light: DIVMTQSPLSLPVTPGEPASISCRSSQSLVHSNRNTYLHWYQQKPGQAPRLLIYKVSNRFSGVPDRFSGSGSGTDFTLKISRVEAEDVGVYYCGQGTQVPYTFGQGTKLEIKRTVAAPSVFIFPPSDEQLKSGTASVVCLLNNFYPREAKVQWKVDNALQSGNSQESVTEQDSKDSTYSLSSTLTLSKADYEKHKVYACEVTHQGLSSPVTKSFNRGEC
